T1: Salmonella muenchen Flagellin (supplied by Inotek) (Salmonella muenchen, UniProt P06177 2-505)
T1 sequence: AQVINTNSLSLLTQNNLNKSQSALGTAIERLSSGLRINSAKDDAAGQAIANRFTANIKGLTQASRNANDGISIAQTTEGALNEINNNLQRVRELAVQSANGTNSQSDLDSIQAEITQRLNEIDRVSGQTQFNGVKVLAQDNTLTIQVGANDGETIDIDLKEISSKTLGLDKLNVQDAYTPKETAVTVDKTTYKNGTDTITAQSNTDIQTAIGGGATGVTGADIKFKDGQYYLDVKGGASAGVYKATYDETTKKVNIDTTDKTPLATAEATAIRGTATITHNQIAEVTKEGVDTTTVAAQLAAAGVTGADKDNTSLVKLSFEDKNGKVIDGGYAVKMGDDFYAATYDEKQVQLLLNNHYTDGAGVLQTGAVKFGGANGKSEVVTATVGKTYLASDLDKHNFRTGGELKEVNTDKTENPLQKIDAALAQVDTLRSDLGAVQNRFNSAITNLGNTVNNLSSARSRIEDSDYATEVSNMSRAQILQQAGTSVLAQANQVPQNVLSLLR

T2: Salmonella flagellin (Salmonella, UniProt P06177 2-505, limits assumed)
T2 sequence: T1 sequence

T3: Pseudomonas flagellin (Pseudomonas, UniProt P21184 2-394)
T3 chain: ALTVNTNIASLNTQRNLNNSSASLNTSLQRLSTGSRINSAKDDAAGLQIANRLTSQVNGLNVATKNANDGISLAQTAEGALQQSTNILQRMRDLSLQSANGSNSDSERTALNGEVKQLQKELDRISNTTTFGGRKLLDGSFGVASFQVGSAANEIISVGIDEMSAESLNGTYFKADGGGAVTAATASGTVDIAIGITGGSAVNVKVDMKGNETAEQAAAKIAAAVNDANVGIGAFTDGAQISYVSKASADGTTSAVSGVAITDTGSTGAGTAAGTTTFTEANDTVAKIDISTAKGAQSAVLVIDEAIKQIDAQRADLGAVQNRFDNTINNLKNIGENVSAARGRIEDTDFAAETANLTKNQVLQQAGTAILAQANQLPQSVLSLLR

T4: recombinant SM flagellin protein (a/a 1-156) (Salmonella muenchen, UniProt P06177 1-156)
T4 construct: The antigen is amino acids 1-156 of S. muenchen flagellin, expressed in E. coli from pET 30C behind the His tag; also called recombinant S. muenchen flagellin; fusion protein; not shown: N-terminal His tag and vector-encoded residues of pET 30C
T4 sequence: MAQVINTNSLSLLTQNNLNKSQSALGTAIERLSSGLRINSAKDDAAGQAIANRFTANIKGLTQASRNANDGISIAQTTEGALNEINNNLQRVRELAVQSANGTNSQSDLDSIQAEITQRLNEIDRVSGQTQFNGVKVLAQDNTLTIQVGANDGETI

B1: murine mAb 741 (antibody, V domains shown)
VH: QVQLQQSGAELVGPGASVTLSCKASGHTFTDYEMHWVKQTPVHGLEWIGGIDPETGGTAYNQKLKGEATLTADKSSNTAYMELRSLTSEDSAVYYCTIYLDYWGRGTTLTVSS
VL: QIVLTQSPAIMSASPGEKVTMTCSANSSINYMHWYQQKPGTSPKRWIYDTTILASGVPARFSGSGSGTSYSLTISSMEAEDAATYYCHQRSSYPFTFGSGTKLEIK
notes: also called mouse control antibody
B2: human mAb 763 (antibody, V domains shown)
VH: EVQLLESGGALVQPGGSLRLSCAASGFTFSSYAMSWARQAPGKGLEWLSGISGSADNTYYAESVKGRFTTSRDNSMNMLYLQMNSLRDEDTAFYYCAKGDQDRGPLEFWGQGTLVTVSS
VL: SYELTQPPSVSVSPGQTARITCSGDALPKQYAYWYQQKPGQAPVLLIYQDTKRPSGIPERFSGSSSGTTVALTISGVQAEDEADYYCQSADSNDSYYVFGTGTKVTVL

Legend:
[1] = molecular target: T1, Salmonella muenchen Flagellin (supplied …); experiment: competition ELISA on plate-coated S. muenchen flagellin; competitor biotinylated mAb 741 at 0.6 µg/ml; mouse control antibody
Salmonella flagellin = molecular target: T2, Salmonella flagellin; experiment: BIACore (SPR); Salmonella flagellin
Pseudomonas flagellin = molecular target: T3, Pseudomonas flagellin; experiment: BIACore (SPR); Pseudomonas flagellin
[2] = molecular target: T4, recombinant SM flagellin protein (a/a …); experiment: ELISA of hybridoma supernatants for anti-SM flagellin reactivity

Row | Binder | IC50 [1] [µg/mL] | Kd (Salmonella flagellin) [nM] | Kd (Pseudomonas flagellin) [nM] | binding result [2]
1 | B1 | 1.9 |  |  | 
2 | B2 |  | ~0.1 | ~1000 | binds

From US20090191208A1 (INOTEK PHARMACEUTICALS, published 2009)
